According to publication PMC11218510, “Functional analysis of the methylerythritol phosphate pathway terminal enzymes IspG and IspH from Zymomonas mobilis” (Microbiology Spectrum, 2024):

Target: the molecule itself
Test: native gel or EMSA; 4%-16% Bis-Tris Native gel; 50 μM IspG, 50 μM IspH and a mixture of 25 μM each

B1: Z. mobilis Strep-tag II IspG (enzyme, UniProt Q5NR50 1-377, looked up)
chain: MSIRPWRHIERRKSRKIMVGNVAVGGDAPISVQTMTNTPTVDAQATIAQIKRCEAVGVDLIRVSCPDKESTAALKDIVRAAEVPIIADIHFHYKRALEAADAGAACLRINPGNIGSSERVAEVVRAAKANGCAIRIGVNAGSLEKELLEKYGEPCPDALVESALNHIKLLQDQDFHEFKVAVKASDVFLAVASYKALAKAVDCPLHLGITEAGGLIGGTVKSALGIGNLLWDGIGDTLRVSLSADPEQEVRVGYDILKTLDLRTRGVRVVSCPSCARQGFDVVKTVKALEERLAHIATPISLSILGCVVNGPGEARETDIGVTGGGQGKHMVFLSGVTDHTVEDAKMLDHIVSLVEAKAAEIEAEKAKEKAATVAAE
notes: IspG of Zymomonas mobilis ZM4; coding region amplified from genomic DNA; carries a [4Fe-4S] cluster (occupancy 5-10%); also called Z. mobilis IspG; ispGZM; source: E. coli PK13681 (BL21 (DE3) derivative) with pPK13651 (pET11a), purified anaerobically (Streptrap HP, PD-10 desalting); not shown: Strep-tag II, C-terminal, kept
stoichiometry N: 2
